Here are results for 2 molecules from paper PMC4976313, “ZCF32, a fungus specific Zn(II)2 Cys6 transcription factor, is a repressor of the biofilm development in the human pathogen Candida albicans”.

For the data set, the target named is T1, Zcf32 ZFN-MBP (Candida albicans, UniProt Q5ANG4 1-116).
T1 sequence: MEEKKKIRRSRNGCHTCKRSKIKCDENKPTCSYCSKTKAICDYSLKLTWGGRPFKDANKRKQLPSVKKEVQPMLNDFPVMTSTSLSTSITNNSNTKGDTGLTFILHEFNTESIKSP
As to the kind of experiment: EMSA; EMSA: 1X HEPES buffer (20 mM HEPES pH 7.8, 150 mM KCl, 0.1% BSA, 10% glycerol), on ice 30 min, 6% native PAGE. The following applies: protein: recombinant; tags: MBP (pMAL-c2x); chain copies: 2; label: 32P 5' end; blunt. Background: A gel shift assay detects complexes by their altered migration in electrophoresis.

B1: O1 (dsDNA)
DNA 1: TACCCGATATAGCCGATG
DNA 2: CATCGGCTATATCGGGTA
On to B1, for which the binding result is “binds”.

B2: O2 (dsDNA)
DNA 1: CCGATATAGCCGATGCAT
DNA 2: ATGCATCGGCTATATCGG
Regarding B2, the binding result is reported as “binds”.
